Laboratory results from article PMC6292502 (Nature structural & molecular biology, 2018).

B1: CEN3 DNA (147 bp CEN3) (dsDNA)
DNA 1: ATCAAATAGTACAAATAAGTCACATGATGATATTTGATTTTATTATATTTTTAAAAAAAGTAAAAAATAAAAAGTAGTTTATTTTTAAAAAATAAAATTTAAAATATTAGTGTATTTGATTTCCGAAAGTTAAAAAAGAAATAGTAAGAAGAT
DNA 2: ATCTTCTTACTATTTCTTTTTTAACTTTCGGAAATCAAATACACTAATATTTTAAATTTTATTTTTTAAAAATAAACTACTTTTTATTTTTTACTTTTTTTAAAAATATAATAAAATCAAATATCATCATGTGACTTATTTGTACTATTTGAT
B2: Ndc10 (natural protein)
chain: MRSSILFLLKLMKIMDVQQQQEAMSSEDRFQELVDSLKPRTAHQYKTYYTKYIQWCQLNQIIPTPEDNSVNSVPYKDLPISAELIHWFLLDTLITDDKPGEKREETEDLDEEEENSFKIATLKKIIGSLNFLSKLCKVHENPNANIDTKYLESVTKLHTHWIDSQKAITTNETNNTNTQVLCPPLLKVSLNLWNPETNHLSEKFFKTCSEKLRFLVDFQLRSYLNLSFEERSKIRFGSLKLGKRDRDAIIYHKVTHSAEKKDTPGHHQLLALLPQDCPFICPQTTLAAYLYLRFYGIPSVSKGDGFPNLNADENGSLLQDIPILRGKSLTTYPREETFSNYYTTVFRYCHLPYKRREYFNKCNLVYPTWDEDTFRTFFNEENHGNWLEQPEAFAFPDKIPFDFKKIMNFKSPYTSYSTNAKKDPFPPPKDLLVQIFPEIDEYKRHDYEGLSQNSRDFLDLMEVLRERFLSNLPWIYKFFPNHDIFQDPIFGNSDFQSYFNDKTIHSKGSPILSFDILPGFNKIYKNKTNFYSLLIERPSQLTFASSHNPDTHPTQKQESEGPLQMSQLDTTQLNELLKQQSFEYVQFQTLSNFQILLSVFNKIFEKLEMKKSSRGYILHQLNLFKITLDERIKKSKIDDADKFIRDNQPIKKEENIVNEDGPNTSRRTKRPKQIRLLSIADSSDESSTEDSNVFKKDGESIEDGAYGENEDENDSEMQEQLKSMINELINSKISTFLRDQMDQFELKINALLDKILEEKVTRIIEQKLGSHTGKFSTLKRPQLYMTEEHNVGFDMEVPKKLRTSGKYAETVKDNDDHQAMSTTASPSPEQDQEAKSYTDEQEFMLDKSIDSIEGIILEWFTPNAKYANQCVHSMNKSGNKSWRANCEALYKERKSIVEFYIYLVNHESLDRYKAVDICEKLRDQNEGSFSRLAKFLRKWRHDHQNSFDGLLVYLSN

What was measured:
Cep3;Ctf13;Skp1;Ndc10 = Cep3;Ctf13;Skp1;Ndc10 (Saccharomyces cerevisiae;Saccharomyces …, UniProt P40969;P35203;P52286;P32504 1-608;1-478;1-194;1-956, |||); assay: cryo-EM
Cep3;Ctf13;Skp1;Ndc10, sequence (P40969 whole entry, chain 1 of 3): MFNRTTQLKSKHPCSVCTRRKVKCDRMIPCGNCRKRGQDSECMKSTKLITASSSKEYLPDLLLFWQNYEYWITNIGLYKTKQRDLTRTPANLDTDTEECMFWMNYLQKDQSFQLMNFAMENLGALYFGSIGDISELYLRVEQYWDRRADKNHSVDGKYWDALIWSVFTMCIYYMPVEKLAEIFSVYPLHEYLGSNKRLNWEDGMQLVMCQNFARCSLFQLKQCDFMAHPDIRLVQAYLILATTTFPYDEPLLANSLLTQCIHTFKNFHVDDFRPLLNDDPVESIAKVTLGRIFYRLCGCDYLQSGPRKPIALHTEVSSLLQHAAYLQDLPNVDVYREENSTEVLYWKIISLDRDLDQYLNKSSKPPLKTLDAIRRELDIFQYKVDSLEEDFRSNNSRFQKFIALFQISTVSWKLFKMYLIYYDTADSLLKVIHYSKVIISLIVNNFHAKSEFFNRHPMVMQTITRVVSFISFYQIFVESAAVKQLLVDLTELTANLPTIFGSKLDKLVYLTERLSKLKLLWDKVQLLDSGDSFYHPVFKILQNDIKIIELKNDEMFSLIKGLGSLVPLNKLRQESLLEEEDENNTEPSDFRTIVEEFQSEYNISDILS
Cep3;Ctf13;Skp1;Ndc10, sequence (P35203 whole entry, chain 2 of 3): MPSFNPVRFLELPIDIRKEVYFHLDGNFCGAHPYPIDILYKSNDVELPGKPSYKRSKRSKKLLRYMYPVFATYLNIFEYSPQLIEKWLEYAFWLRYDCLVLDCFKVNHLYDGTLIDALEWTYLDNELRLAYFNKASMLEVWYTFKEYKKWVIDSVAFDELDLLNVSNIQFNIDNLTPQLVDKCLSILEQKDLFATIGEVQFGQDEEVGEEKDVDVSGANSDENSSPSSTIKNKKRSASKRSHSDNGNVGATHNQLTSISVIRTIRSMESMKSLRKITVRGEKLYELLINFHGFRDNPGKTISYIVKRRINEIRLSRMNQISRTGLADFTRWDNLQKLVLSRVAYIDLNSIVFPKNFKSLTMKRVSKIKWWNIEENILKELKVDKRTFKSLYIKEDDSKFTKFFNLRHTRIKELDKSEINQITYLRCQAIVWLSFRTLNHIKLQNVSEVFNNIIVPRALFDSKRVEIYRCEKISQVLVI
Cep3;Ctf13;Skp1;Ndc10, sequence (P52286 whole entry, chain 3 of 3): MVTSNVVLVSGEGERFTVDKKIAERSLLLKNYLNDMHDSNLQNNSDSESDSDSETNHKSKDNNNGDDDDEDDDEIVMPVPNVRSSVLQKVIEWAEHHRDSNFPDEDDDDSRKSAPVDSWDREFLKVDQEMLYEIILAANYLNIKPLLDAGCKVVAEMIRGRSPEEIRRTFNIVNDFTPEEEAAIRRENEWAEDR

cryo-EM structure = target: the molecule itself; assay: cryo-EM structure

Binder	binding result (Cep3;Ctf13;Skp1;Ndc10)	binding result (cryo-EM structure)
B1	binds	–
B2	–	binds
